Measured values published in a protein production outcome set (Wang et al. 2014).

Test: label from the status in PepcDB records

With “MRTRIERTEEMVEQLPLVSVLIPTYNRPSYFEKALCSVLEQTYPNIEIIVGDDSTNDETEKLLQKYLCDHSNIIYIKNRSTLGQFENALMLFNEANGEYINFLMDDDVFHVNKIEKMMKYFFNDLDNEIKLVTSHRQVIDDKGKELRHIYSTVRLFEEDTIIEGTELGNKVIVDQKNYIGEPTTVLFRKNDLQEPYGIFDKRRYLCNVDIASWLSLLSKGKAVYIAETLSYFRLHPDQQLNESNKMMDGLEDFSHSIIAGEQYGFLSTEKELDKAITNFLDYARRIVPSSILYTLDYYQKIRAKKINIEKKKQHINNNSSLPKVSILIPAYNRPYYLELALNSALNQTYENIEIIISDDSTNNEVNAMIQPYLREYECITYVKNETPLVAENFNKCVELANGDYMNFLLDDDLFHHEKIERMMKYFLTLENISFVTSYRELIDENGEILPPSTLNMKIAKETTLFEGKELGNYMLKNLKNVVGEPTTVLFNRDLFDGKFGYFKGKAYSAINDIATWLDMMRKGKVVYIHEPLSYFRQHSGQNQKQMHFILMTIEEWIELIIDAYNSGFLSSESEYKESLSYCLENAGFIVKDAVRNGELDQIYNEKIKKGLNKLVAHMFEKESCYCQYCNQQFEKFSPWPAHYDFPKYKFEMWNKDTGICPVCNSMDRERLYRAYIETETDLLNRNYTMLHIAPEAKLRDWFNEYKNITYVCGDLEPKDPLMKEIDVTRITYDSNTFDVILCSHVLEHVPDDDKAMRELYRVLKPNGWGIIQVPIVMNVDFIIENELIVTPQLRKLAFGQEDHVRIYNQSGFIQRLMNAGFKVELYNIAEKQGMKGARKFGLSETDMLYIVRK” the protein production was “failed”.
With “MRTSAFVPVLLFALLGALVGCSGGTELTYSGPEEAYKKGVAEMEEGDHQQAIRFFRAVFEYGRGNEWAPDARFKLAMAQRGLNKHLVAANEFQRFTQLYRNDELLPRAEFERANSYYLRSPSYRLDQSDSEQAISLFRLFIDRHPNHELVPEAEEKINELRAKLARKKYEAGRLYEQRDMWQAATTVYERAFDQYPDTPWADDALLGAVRTYIRYADRSVESKQAERYQKAIENYNRLTQLFPESTLLGRAEDLYSEAREKLDRAQAQQGEQSLAQEDASSGSN” the protein production was “failed”.
For “MRTTAAEEAGLETETARRRFSRASLVNVAGNAVKILVEGAVGLAFGSVALLADAAHSVADLVASAVVLVWGRSVYTDPDENHPHGHQRVEPLAALFVGSLIVLLGLNLFYESATGLVAGPEVQFHPLLVGALLFAMADMYLLYWYTTHINESVGSSALEALAIDCRNDIYTTIAALCGVIGVFFGYPLFDAVAGGLVSVLVVYQGFEISRENVSYLVGASPSDQQRQRVVETLTDHPAVHGAHDVAVFYDGTDIEVEAHVEVDGELTLVEAHDIETELVSALRSLESVGDVHLHLDPAGIGEWKDAAVNEQRGPETQTGSPKQ”, the protein production was “failed”.
In the case of “MRTVLNILNFVLGGFATTLAWLLATLVSIVLIFTLPLTRSCWEITKLSLFPYGNEAIHVDELNPAAKSVLMNTGGTLLNIFWLLFFGWWLCLMHIASGIAQCVTIIGIPVGIANFKIAAIALWPVGRRVVSVETARAAREANARRRFE”, the protein production is reported as “failed”.
For “MRTVLNILNFVLGGFATTLGWLLATLVSIVLIFTLPLTRSCWEITKLSLVPYGNEAIHVDELNPAGKNVLLNTGGTVLNIFWLIFFGWWLCLMHIATGIAQCISIIGIPVGIANFKIAAIALWPVGRRVVSVETAQAAREANARRRFE”, the protein production was “failed”.
For “MRTVTGAILAMNLEVKDFVHRDVEEADRRLREIGARKILLQLPDGLKPYAFDYFTYLSQRYDVILSSSPVYGACDIGPSYLYDRVDAIVQVGHSIMRNVKYPRPVIFIEHYRTVDVEDINTEALKNYRRIGLIYSIQYRPVADRVKRILESKGFEVIIGRSDRRMTYDGQVLGCNFSSVHSVEAEVEAFVIVSTGSFHALGSQISTERPVFLLDLNEMSLRSMEKEADTFIRKRYAQIYRAMDAKRICFLVDTRIGQRREKLARMLMDRARDLGKEAVLAYTDNISDQDIQNMGCDLAVYTGCPRVPIDDQDRFTVPVLTPAEFSMAFFKSSKRYVLDEIVSVDEFTDQLEHHHHHH”, the protein production was “failed”.
With “MRVARLFRFPVKGFPAEEIPEADVRTGRGIRGDRVAAFTNGSLDIPDDSWHRYSAFTVLKNDTDLQKWQVELDLAEAADSSQPAVADPSATVTLTSPQNETTTFRTDDRDTRATSADFLSARIPPQGDFPRALSVADQGMFDSQAAGVSIINPATVAAISQTADGQAALAPGETELDPLRFRGNVLVDGLAPFEEFALIGKIVRLGGVRLAITQAIERCPATTVNPTTTAVDVNVPRVLASACGHLHCGVYGRILESGLVSTGDEIEIEGDAPRELVKTARTPRFMTVLGSQQICNDIVEVSLRDDQGWIREFDEPGTNLRVHLDLGEPFWRTYTITDVSDDIVSIAVRTQGKGSRAVAELAAGQSVLASGPHGTMTANRVFGGTTALVTAGIGITPSLGLMRGAELSGTEKIKLFHVDRDHRTACLWDRLQKRAHSRQIPVETHHRDTASQGRPGHADLVDWLAGCDNVMVCGPADFTRAVLDASAEAGVPAVHQEIFASPNTGMSEAIAQCSPAEVTLENSGTSFLWEPQQGTLLEALEARGLRADNSCRGGSCGTCAVSLAAGSVIYPVEPAARIAADEVLVCSAVPSGPISLGILEHHHHHH” the protein production was “failed”.
In the case of “MRVDIVPVGDVPAHVKRQASSSLRSVYDCEVVVASEQDVPTAAYDEARSQYRAAEFIDTATRATSGDKTIAITPHDLFYRRRNYVFGLAYLDGRGCVVSTYRLQTSSDGGFSNRSSSDVFDDRVRKEVVHELGHTLGLEHCDNNRCAMNFSPTVREVDRKEENLCGSCQRTVFLEHHHHHH”, the protein production is reported as “not failed”.
For “MRVEDVMVTDVDTIDITASLEDVLRNYVENAKGSSVVVKEGVRVGIVTTWDVLEAIAEGDDLAEVKVWEVMERDLVTISPRATIKEAAEKMVKNVVWRLLVEEDDEIIGVISATDILRAKMAKRY”, the protein production was “not failed”.
In the case of “MRVEVFPVEGLPLIKEGDDLAELISSRVRFEDGDVLVVCSTVISKAEGRIRRLEEFNPSERAKEIAARIGKPAEFVQAVLEESEEVLLDFPFLLVKAKFGNVCVNAGIDASNVEEGSLLLPPLDPDGSAEKLRRRILELTGKRVGVIITDTNGRCFRRGVVGFAIGISGVKAMKDWIGRKDLYGRELEVTVECVADEIAAFANLLMGEGGDGIPAVVVRGLNVAGEGSMEEIYRSEEEDVIRRCLKRCL”, the protein production is reported as “not failed”.
For “MRVFPVTLGPLQENAYLVETGEGPVLIDPGDEPEKLLALFQTTGLIPLAILLTHAHFDHVGAVAPLVEALDLPVYLHPLDLPLYEGADLAARAWGLAIPKPPLPVRPLEEGMRLFGFQVLHLPGHSPGHVAFYDPEGAQVFSGDLLFRGSVGRYDLPGADPKALFASLKRLLSLPPETRVHPGHGPGTTLGLEARTNPFLTGLEWEA”, the protein production was “not failed”.
With “MRVFVTGASGWIGSAVVPELIRAGHQVVGLARSDASAEALTAAGAGVVRGTLDDLDVLRRAAADSDGVVHLAFKHDIAFSGDFKGAGEADRRAVEVIGEALAGSDRPFTIASGTPAIPGHVATEHDGHDADRAAAARGDAQHIRAVTAELTVSLSARGVRSSVVRLAPTNHGEGDNGFVPALIGIARGKGVSGYIGDGTNRWSAAHRLDSARLFRLALEKAPAGSTLHAVAEEGLPVRDLAEVVGRQLGLPVVSVPAAEAEAHFGWLAGPLAANRAASSVLTRELLGWEPVQPGLVEDLEQGHYFK” the protein production was “failed”.
For “MRVLVTGGAGFIGSHIVEDLLARGLEVAVLDNLATGKRENVPKGVPFFRVDLRDKEGVERAFREFRPTHVSHQAAQASVKVSVEDPVLDFEVNLLGGLNLLEACRQYGVEKLVFASTGGAIYGEVPEGERAEETWPPRPKSPYAASKAAFEHYLSVYGQSYGLKWVSLRYGNVYGPRQDPHGEAGVVAIFAERVLKGLPVTLYARKTPGDEGCVRDYVYVGDVAEAHALALFSLEGIYNVGTGEGHTTREVLMAVAEAAGKAPEVQPAPPRPGDLERSVLSPLKLMAHGWRPKVGFQEGIRLTVDHFRGAV”, the protein production was “not failed”.
For “MRVVALVPGGIGDQILFFPTLDDLKRYYPNAQLDVVVEPRSKAAYRVSKSVNDILTFDYKDRNSLADWGNLVGTIRDREYDVVITVGQSWLVGLFLWLTGIPTRIGYQGKGRSFLTKTVPFKPSQYAAAVYHDLLAPIGITTPTPELAVNVPKPDIDWANSEQKRLGVNETGYVLIYGGSSWVSQPQALETIYPAENWQEIIQDFRQKQPDLPVVVIQGPDDEQFVRSLRDYSLDIKVTSPDNVGKLTAMIAGANLMLTTDSAPLHLSVAVQTYTIALFGSTDPVKLLPNSDKLLGIKSSTGRVADILPKAVLEKVWGGLEHHHHHH”, the protein production was “not failed”.
With “MRWGSWLALAGLNAFLSIASGAFAAHALSALGDAHGVGLMEKSARYQMYGAFALVVCAWLAERGVGGRLVAVAGWLHLAGVVLFCGALSAIALLGWPAGPVAPLGGSAMLLGWGVLAWIGLRARRGA” the protein production was “failed”.
With “MRWLLLLLLLAACRAQGLPEPYATLERGGKEALRQVALEAQGYAGLLAGWLLVGEEDLPLAERAEYAWRYALFLEEVRAFEPGWEAEAAWRVAAPLLEAAEDARAFSAWARLLPEEEAVQALLRLGQGERLWEALFRGRAYEPLLKALPEGERPDLRAQALYRLGRYEEALPHYRAWAEADPRGYLGLGYALWRLGRREEALQAFARYDHPESRLAQGRLLEGMGRVEEALARYLASTPEGLWRATALLERLGRKEEALGVYLRLAQGESPYADDAALRAYLLAGELGNGEARQEAYARLEGGLGLLVGKRPSPPPQALEAPPAPLTPLVEALVRAGKAAWARGEVRYALWRRPKDWPALVPLLYRLGAYREGIRAAWPTALAYPRAYREWVEGYAGKEGLDPDLLFALLHVESRFDPKAVSPTGALGLAQFLRSTWADVARMLGEPPADPFDPESAIRYAARYLRWLMERCAAFSGVERLACAVTAYNGGIGYTLRGIAREGGLYAFLRFQERDEPREYLAKVLSAYAAYKAIP” the protein production was “failed”.
In the case of “MRWRADFLSAWAEALLRKAGADEPSAKAVAWALVEADLRGVGSHGLLRLPVYVRRLEAGLVNPSPTLPLEERGPVALLDGEHGFGPRVALKAVEAAQSLARRHGLGAVGVRRSTHFGMAGLYAEKLAREGFVAWVTTNAEPDVVPFGGREKALGTNPLAFAAPAPQGILVADLATSESAMGKVFLAREKGERIPPSWGVDREGSPTDDPHRVYALRPLGGPKGYALALLVEVLSGVLTGAGVAHGIGRMYDEWDRPQDVGHFLLALDPGRFVGKEAFLERMGALWQALKATPPAPGHEEVFLPGELEARRRERALAEGMALPERVVAELKALGERYGVPWRDDA”, the protein production is reported as “not failed”.
For “MRYAAVLVEVGGTHRCLPLDSDGDLNIVASFDRRGKHIYTGNAKGKILVLDAETFEVVASFRIIVGTSSATAVKSIEFARRGDAFLINTSDRVIRVYDSKEIIILGKDGEPEPIQKLQDLVNKTTWKKCCFSGDGEYICAGSARQHALYIWEKSIGNLVKILHGTKGELHKQKRIRSFLERLAKDVPRIKNHLTLPNRFLFSSYRYYIRTI”, the protein production was “failed”.
In the case of “MRYADRVAGISWETIEEVRRRLKERPALHFIAGEFVPSESGETFPSLDPATNEVLGVAARGGEREVDRAAKAAHEAFQRWSRTKAKERKRYLLRIAELIEKHADELAVMECLDAGQVLRIVRAQVARAAENFAFYAEYAEHAMEDRTFPVDRDWLYYTVRVPAGPVGIITPWNAPLMLSTWRIAPALAFGNTVVLKPAEWSPFTATKLAEILKEADLPPGVFNLVQGFGEEAGAALVAHPLVPLLTLTGETETGKIVMRNAADHLKRLSPELGGKSPALVFADADLERALDAVVFQIFSFNGERCTASSRLLVEEKIFEDFVGKVVERARAIRVGHPLDPETEVGPLIHPEHLQRVLGYVEAGKREGARLLVGGERAKTSFRGEDLSRGNYLLPTVFVGENHMKIAQEEIFGPVLVAIPFKDEEEALRKANDTKYGLAAYVFTRDLERAHRLALELEAGMVYLNSHNVRHLPTPFGGVKGSGDRREGGTYALDFYTDLKTIALPLRPPHVPKFGK”, the protein production is reported as “not failed”.
In the case of “MRYFSTDSPEVKTIVAQDSRLFQFIEIAGEVQLPTKPNPFQSLVSSIVEQQLSIKAASAIYGRVEQLVGGALEKPEQLYRVSDEALRQAGVSKRKIEYIRHVCEHVESGRLDFTELEGAEATTVIEKLTAIKGIGQWTAEMFMMFSLGRLDVLSVGDVGLQRGAKWLYGNGEGDGKKLLIYHGKAWAPYETVACLYLWKAAGTFAEEYRSLEELLHHGNQC”, the protein production is reported as “not failed”.
